Experimental data reported in patent US20110136733A1 (IPSEN PHARMA S A S, published 2011).
Where no end group is shown, it is not given here. [ ]: non-standard residue; d: D form. The star is where a group is joined. Psu = N-propylsuccinimide on the Cys sulfur (from N-propylmaleimide), CCCN1C(=O)CC(*)C1=O; Ac6c = NC1(C(=O)O)CCCCC1; Nle = CCCC[C@H](N)C(=O)O; Aib = CC(C)(N)C(=O)O

T1: human recombinant GIP receptor (human, UniProt P48546 22-466)
T1 construct: whole, on cells; Membranes of CHO-K1 cells expressing the receptor; also called hGIP receptor
T1 sequence (looked up): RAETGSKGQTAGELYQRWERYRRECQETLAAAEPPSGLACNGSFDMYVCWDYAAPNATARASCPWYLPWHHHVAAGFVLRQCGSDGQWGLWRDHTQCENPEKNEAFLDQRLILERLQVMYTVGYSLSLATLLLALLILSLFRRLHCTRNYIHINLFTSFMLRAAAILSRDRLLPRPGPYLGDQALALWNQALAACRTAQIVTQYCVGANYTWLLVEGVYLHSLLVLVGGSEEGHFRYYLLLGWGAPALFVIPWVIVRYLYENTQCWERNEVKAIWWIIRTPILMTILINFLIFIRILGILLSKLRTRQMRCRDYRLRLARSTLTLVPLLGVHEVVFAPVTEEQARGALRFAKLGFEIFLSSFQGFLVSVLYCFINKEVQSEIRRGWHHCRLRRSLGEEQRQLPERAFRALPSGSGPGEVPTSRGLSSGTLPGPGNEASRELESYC


The binders below were run against T1, human recombinant GIP receptor (assay: [125I]GIP competition, membranes of CHO-K1 cells expressing human GIP receptor).

Binder | Ki [nM]
YXEGTFXSDYSIAXDKIHQQDFVNWLLAQKXKKNDWKHNITQ (Aib at 2 and 31; A6c at 7; Nle at 14; C-terminal free acid) [(Aib^2, 31, A6c^7, Nle^14)hGIP(1-42)-OH] | 2.06
Y[Aib]EGTF[Ac6c]SDYSIA[Nle]DKIHQQDFVNWLLAQKGKKNDWKHNI[Aib]Q-OH [(Aib^2, 41, A6c^7, Nle^14)hGIP(1-42)-OH] | 1.33
YXEGTFXSDYSIAXDKIHQQDFVNWXLAQKGKKNDWKHNITQ (Aib at 2; A6c at 7 and 26; Nle at 14; C-terminal free acid) [(Aib^2, A6c^7, 26, Nle^14)hGIP(1-42)-OH] | 2.54
YXEGTFXSDYSIAXDKIHQQDFVNWLXAQKGKKNDWKHNITQ (Aib at 2; A6c at 7 and 27; Nle at 14; C-terminal free acid) [(Aib^2, A6c^7, 27, Nle^14)hGIP(1-42)-OH] | 121
Y[Aib]EGTF[Ac6c]SDYSIA[Nle]DKIHQQDFVNWLLAQKGKKNDWKHN[Ac6c]TQ-OH [(Aib^2, A6c^7, 40, Nle^14)hGIP(1-42)-OH] | 1.09
YXEGTFISXYSIAMDKIHQQDFVNWLLAQKGKKNDWKHNITQ (Aib at 2 and 9; C-terminal free acid) [(Aib^2, 9)hGIP(1-42)-OH] | 2.66
Y[Aib]EGTF[Ac6c]SDYSIA[Nle]DKIHQQDFVNWLLAQKGKKNDWKHNI[Ac6c]Q-OH [(Aib^2, A6c^7, 41, Nle^14)hGIP(1-42)-OH] | 1.17
Y[Aib]EGTF[Ac6c]SDYSIA[Nle]DKIHQQDFVNWLL[Aib]QKGKKNDWKHNITQ-OH [(Aib^2, 28, A6c^7, Nle^14)hGIP(1-42)-OH] | 1.22
YXEGTFXSDYSIAXDKIHQQDFVNWLLAQK (Aib at 2; A6c at 7; Nle at 14; C-terminal amide) [(Aib^2, A6c^7, Nle^14)hGIP(1-30)-NH2] | 1.04
YXEGTFXSDYSIAXDKIHQQDFVNWLLAQK (Aib at 2; A5c at 7; Nle at 14; C-terminal amide) [(Aib^2, A5c^7, Nle^14)hGIP(1-30)-NH2] | 4.9
YXEGTFISDYXIAXDKIHQQDFVNWLLAQK (Aib at 2 and 11; Nle at 14; C-terminal amide) [(Aib^2, 11, Nle^14)hGIP(1-30)-NH2] | 1.39
YXPGTFISDYXIAXDKIHQQDFVNWLLAQK (Aib at 2; A5c at 11; A6c at 14; C-terminal amide) [(Aib^2, Pro^3, A5c^11, A6c^14)hGIP(1-30)-NH2] | 34.1
YXEGTFXSDYSIAXDKIHQQDFVNWLLAQK (A5c at 2 and 7; Nle at 14; C-terminal amide) [(A5c^2, 7, Nle^14)hGIP(1-30)-NH2] | 25.8
YXEGTFXSDYSIAXDKIHQQDFVNWLLAQK (Aib at 2; A5c at 7 and 14; C-terminal amide) [(Aib^2, A5c^7, 14)hGIP(1-30)-NH2] | 2.32
YXEGTFXSDYSIAXDKIHQQDFVNWLLAQK (A6c at 2 and 7; Nle at 14; C-terminal amide) [(A6c^2, 7, Nle^14)hGIP(1-30)-NH2] | 47
YXEGTFXSDYSIAXDKXHQQDFVNWLLAQKGKKNDWKHNITQ (Aib at 2; A6c at 7 and 17; Nle at 14; C-terminal free acid) [(Aib^2, A6c^7, 17, Nle^14)hGIP(1-42)-OH] | 1.06
YXEGTFISDYXIAXDKIHQQDFVNWLLAQK (Aib at 2 and 11; A6c at 14; C-terminal amide) [(Aib^2, 11, A6c^14)hGIP(1-30)-NH2] | 0.73
Y[Aib]EGTF[Aib]SDYSIAMDKIHQQDFVNWLLAQKGKKNDWKHNITQ-OH [(Aib^2, 7)hGIP(1-42)-OH] | 0.75
Y[Aib]EGTF[Ac6c]SDYSIAMDKIHQQDFVNWLLAQKC(Psu)KKNDWKHNITQ-OH [[Aib^2, A6c^7, Cys(Psu)^31]hGIP(1-42)-OH] | 75.8
Y[Aib]EGTF[Ac6c]SDYSIAMDKIHQQDFVNWLLAQKGC(Psu)KNDWKHNITQ-OH [[Aib^2, A6c^7, Cys(Psu)^32]hGIP(1-42)-OH] | 2.59

Binder | Ki [nM]
Y[Aib]EGTF[Ac6c]SDYSIAMDKIHQQDFVNWLLAQKGKC(Psu)NDWKHNITQ-OH [[Aib^2, A6c^7, Cys(Psu)^33]hGIP(1-42)-OH] | 1.51
Y[Aib]EGTF[Ac6c]SDYSIAMDKIHQQDFVNWLLAQKGKKC(Psu)DWKHNITQ-OH [[Aib^2, A6c^7, Cys(Psu)^34]hGIP(1-42)-OH] | 356
Y[Aib]EGTF[Ac6c]SDYSIAMDKIHQQDFVNWLLAQKGKKNC(Psu)WKHNITQ-OH [[Aib^2, A6c^7, Cys(Psu)^35]hGIP(1-42)-OH] | 288
Y[Aib]EGTF[Ac6c]SDYSIAMDKIHQQDFVNWLLAQKGKKNDC(Psu)KHNITQ-OH [[Aib^2, A6c^7, Cys(Psu)^36]hGIP(1-42)-OH] | 635
Y[Aib]EGTF[Ac6c]SDYSIAMDKIHQQDFVNWLLAQKGKKNDWC(Psu)HNITQ-OH [[Aib^2, A6c^7, Cys(Psu)^37]hGIP(1-42)-OH] | 22.7
Y[Aib]EGTF[Ac6c]SDYSIAMDKIHQQDFVNWLLAQKGKKNDWKC(Psu)NITQ-OH [[Aib^2, A6c^7, Cys(Psu)^38]hGIP(1-42)-OH] | 5.05
Y[Aib]EGTF[Ac6c]SDYSIAMDKIHQQDFVNWLLAQKGKKNDWKHC(Psu)ITQ-OH [[Aib^2, A6c^7, Cys(Psu)^39]hGIP(1-42)-OH] | 13.8
Y[Aib]EGTF[Ac6c]SDYSIAMDKIHQQDFVNWLLAQKGKKNDWKHNC(Psu)TQ-OH [[Aib^2, A6c^7, Cys(Psu)^40]hGIP(1-42)-OH] | 16
Y[Aib]EGTF[Ac6c]SDYSIAMDKIHQQDFVNWLLAQKGKKNDWKHNIC(Psu)Q-OH (The synthesis text lists Fmoc-Ala-OH, not Aib, at the cycle for position 2) [[Aib^2, A6c^7, Cys(Psu)^41]hGIP(1-42)-OH] | 63.6
YXEGTFXSDYSIAXDKIHQQDFVNWLLAQK (Aib at 2; A6c at 7 and 14; C-terminal amide) [(Aib^2, A6c^7, 14)hGIP(1-30)-NH2] | 1.19
YXEGTFISDYSIAXDKIHQQDFVNWLLAQKGKKNDWKHNITQ (A5c at 2; Nle at 14; C-terminal free acid) [(A5c^2, Nle^14)hGIP(1-42)-OH] | 15.9
YXEGTFISDYXIAXDKIHQQDFVNWLLAQKGKKNDWKHNITQ (Aib at 2 and 11; A6c at 14; C-terminal free acid) [(Aib^2, 11, A6c^14)hGIP(1-42)-OH] | 0.73
YXEGTFISDYSIAXDKIHQQDFVNWLLAQKGKKNDWKHNITQ (Aib at 2; A6c at 14; C-terminal free acid) [(Aib^2, A6c^14)hGIP(1-42)-OH] | 0.07
Y[Aib]EGTF[Ac6c]SDYSIAMDKIHQQDFVNWLLAQKGKKNDWKHNITQ-OH [(Aib^2, A6c^7)hGIP(1-42)-OH] | 0.3
YXEGTFXSDYSIAXDKIHQQDFVNWLLAQKGKKNDWKHNITQ (Aib at 2; A5c at 7; A6c at 14; C-terminal free acid) [(Aib^2, A5c^7, A6c^14)hGIP(1-42)-OH] | 0.63
YXEGTFISDYXIAXDKIHQQDFVNWLLAQKGKKNDWKHNITQ (Aib at 2 and 11; Nle at 14; C-terminal free acid) [(Aib^2, 11, Nle^14)hGIP(1-42)-OH] | 0.29
YXEGTFISDYXIAMDKIHQQDFVNWLLAQK (Aib at 2; A5c at 11; C-terminal amide) [(Aib^2, A5c^11)hGIP(1-30)-NH2] | 0.09
YXEGTFISDYSIXMDKIHQQDFVNWLLAQK (Aib at 2 and 13; C-terminal amide) [(Aib^2, 13)hGIP(1-30)-NH2] | 0.33
YXEGTFISDYXIAXDKIHQQDFVNWLLAQK (Aib at 2; A5c at 11; A6c at 14; C-terminal amide) [(Aib^2, A5c^11, A6c^14)hGIP(1-30)-NH2] | 0.15
Y[Aib]EG[Aib]FISDYSIAMDKIHQQDFVNWLLAQKGKKNDWKHNITQ-OH [(Aib^2, 5)hGIP(1-42)-OH] | 4.08
